The labels stand for the following.
B1: SMTNL2 (parent)
chain: AFTMAENLANCERLIEVEDMMVMG
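Also: lentivirally expressed fusions sorted by FACS into six bins by GFP to DsRed ratio, PSI derived from sequencing read proportions per bin multiplied by bin number.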

Variants of B1 are the subject of the series. Description: protein stability index of a GFP-peptide fusion (GPS, HEK-293T) (PSI 1-6); higher = more stable. Particulars: c terminus: a fixed tail appended.
Consider AFHMAENLANCERLIEVEDMMVMG [T3H], for which the protein stability index amounted to 2.24. The value for AFMMAENLANCERLIEVEDMMVMG [T3M] was 1.96. In the case of AFCMAENLANCERLIEVEDMMVMG [T3C], the protein stability index came to 1.85. As for AFRMAENLANCERLIEVEDMMVMG [T3R], the protein stability index is 2.11. For the variant AFNMAENLANCERLIEVEDMMVMG [T3N], the protein stability index was determined as 2.42. On to AFYMAENLANCERLIEVEDMMVMG [T3Y], for which the protein stability index was determined as 2.06.

Turning to AFVMAENLANCERLIEVEDMMVMG [T3V], the protein stability index is 1.79. Turning to AFPMAENLANCERLIEVEDMMVMG [T3P], the protein stability index worked out at 3.15. Turning to AFGMAENLANCERLIEVEDMMVMG [T3G], the protein stability index came out at 2.91.

In the case of AFDMAENLANCERLIEVEDMMVMG [T3D], the protein stability index was found to be 2.85. In the case of AFIMAENLANCERLIEVEDMMVMG [T3I], the protein stability index turned out to be 1.72. With AFFMAENLANCERLIEVEDMMVMG [T3F], the protein stability index was 1.71. On to AFLMAENLANCERLIEVEDMMVMG [T3L], for which the protein stability index came to 1.77. The value for AFEMAENLANCERLIEVEDMMVMG [T3E] was 2.15; that for AFSMAENLANCERLIEVEDMMVMG [T3S] was 2.12. The value for AFKMAENLANCERLIEVEDMMVMG [T3K] was 2.03; that for AFWMAENLANCERLIEVEDMMVMG [T3W] was 1.74; that for AFAMAENLANCERLIEVEDMMVMG [T3A] was 2.06.

Consider AFQMAENLANCERLIEVEDMMVMG [T3Q], for which the protein stability index stood at 2.13. Take AFTMAYNLANCERLIEVEDMMVMG [E6Y]: the protein stability index was 2.76. On to AFTMAWNLANCERLIEVEDMMVMG [E6W], for which the protein stability index was 1.81. As for AFTMAANLANCERLIEVEDMMVMG [E6A], the protein stability index amounted to 1.83.

For the variant AFTMAPNLANCERLIEVEDMMVMG [E6P], the protein stability index amounted to 2.89. On to AFTMAFNLANCERLIEVEDMMVMG [E6F], for which the protein stability index was 2.45. With AFTMASNLANCERLIEVEDMMVMG [E6S], the protein stability index is 1.65. Regarding AFTMACNLANCERLIEVEDMMVMG [E6C], the protein stability index was 2.27.

AFTMARNLANCERLIEVEDMMVMG [E6R]: the protein stability index came to 1.51.

Take AFTMAGNLANCERLIEVEDMMVMG [E6G]: the protein stability index worked out at 2.15. AFTMAHNLANCERLIEVEDMMVMG [E6H]: the protein stability index was 2.09. For AFTMAINLANCERLIEVEDMMVMG [E6I], the protein stability index was determined as 2.69. For AFTMADNLANCERLIEVEDMMVMG [E6D], the protein stability index was 2.8. For the variant AFTMATNLANCERLIEVEDMMVMG [E6T], the protein stability index was found to be 1.74.

In the case of AFTMAQNLANCERLIEVEDMMVMG [E6Q], the protein stability index worked out at 1.3. Consider AFTMAKNLANCERLIEVEDMMVMG [E6K], for which the protein stability index was determined as 1.77. On to AFTMAMNLANCERLIEVEDMMVMG [E6M], for which the protein stability index was found to be 4.33. As to AFTMANNLANCERLIEVEDMMVMG [E6N], the protein stability index was determined as 1.96. On to SFTMAENLANCERLIEVEDMMVMG [A1S], for which the protein stability index was 2.46.

For IFTMAENLANCERLIEVEDMMVMG [A1I], the protein stability index was 1.76. With PFTMAENLANCERLIEVEDMMVMG [A1P], the protein stability index turned out to be 3.16.

WFTMAENLANCERLIEVEDMMVMG [A1W]: the protein stability index was determined as 1.86. In the case of RFTMAENLANCERLIEVEDMMVMG [A1R], the protein stability index came to 2.84. As to GFTMAENLANCERLIEVEDMMVMG [A1G], the protein stability index is 1.74. Turning to HFTMAENLANCERLIEVEDMMVMG [A1H], the protein stability index came out at 2.62. In the case of EFTMAENLANCERLIEVEDMMVMG [A1E], the protein stability index was 2.1. In the case of QFTMAENLANCERLIEVEDMMVMG [A1Q], the protein stability index worked out at 3.22. With YFTMAENLANCERLIEVEDMMVMG [A1Y], the protein stability index was 2.2.

As for LFTMAENLANCERLIEVEDMMVMG [A1L], the protein stability index was found to be 1.75. As for MFTMAENLANCERLIEVEDMMVMG [A1M], the protein stability index came to 1.61. Take KFTMAENLANCERLIEVEDMMVMG [A1K]: the protein stability index was 2.58. With CFTMAENLANCERLIEVEDMMVMG [A1C], the protein stability index came out at 1.74. For the variant NFTMAENLANCERLIEVEDMMVMG [A1N], the protein stability index was 2.44.

As for VFTMAENLANCERLIEVEDMMVMG [A1V], the protein stability index came to 2.06. Regarding DFTMAENLANCERLIEVEDMMVMG [A1D], the protein stability index was determined as 2.47. Take TFTMAENLANCERLIEVEDMMVMG [A1T]: the protein stability index was found to be 1.81.

Take FFTMAENLANCERLIEVEDMMVMG [A1F]: the protein stability index came out at 1.86. AFTMAENLCNCERLIEVEDMMVMG [A9C]: the protein stability index stood at 2.48. For AFTMAEHLANCERLIEVEDMMVMG [N7H], the protein stability index is 1.92.

AFTMAEVLANCERLIEVEDMMVMG [N7V]: the protein stability index is 2.66. As for AFTMAELLANCERLIEVEDMMVMG [N7L], the protein stability index turned out to be 2.48. Consider AFTMAEALANCERLIEVEDMMVMG [N7A], for which the protein stability index came to 2.83. As to AFTMAEILANCERLIEVEDMMVMG [N7I], the protein stability index is 2.05.

As to AFTMAEGLANCERLIEVEDMMVMG [N7G], the protein stability index is 2.59. AFTMAEPLANCERLIEVEDMMVMG [N7P]: the protein stability index came to 3.41. With AFTMAESLANCERLIEVEDMMVMG [N7S], the protein stability index was 2.45. Consider AFTMAEDLANCERLIEVEDMMVMG [N7D], for which the protein stability index came out at 3.11. For the variant AFTMAEFLANCERLIEVEDMMVMG [N7F], the protein stability index turned out to be 1.78.

AFTMAEQLANCERLIEVEDMMVMG [N7Q]: the protein stability index came out at 2.38. For AFTMAEKLANCERLIEVEDMMVMG [N7K], the protein stability index stood at 2.43. As for AFTMAERLANCERLIEVEDMMVMG [N7R], the figure is 2.25; as for AFTMAEMLANCERLIEVEDMMVMG [N7M], 1.67. The value for AFTMAEWLANCERLIEVEDMMVMG [N7W] was 1.49; that for AFTMAETLANCERLIEVEDMMVMG [N7T] was 2.62. Turning to AFTMAECLANCERLIEVEDMMVMG [N7C], the protein stability index came out at 3.03.

Consider AFTMAEELANCERLIEVEDMMVMG [N7E], for which the protein stability index stood at 2.21. For the variant AFTMAEYLANCERLIEVEDMMVMG [N7Y], the protein stability index turned out to be 1.62. As for AFTMAENNANCERLIEVEDMMVMG [L8N], the protein stability index was found to be 3.79.

Take AFTMAENRANCERLIEVEDMMVMG [L8R]: the protein stability index amounted to 3.38. Take AFTMAENQANCERLIEVEDMMVMG [L8Q]: the protein stability index was 4.06. With AFTMAENAANCERLIEVEDMMVMG [L8A], the protein stability index was 4.35. In the case of AFTMAENHANCERLIEVEDMMVMG [L8H], the protein stability index is 3.85. Consider AFTMAENYANCERLIEVEDMMVMG [L8Y], for which the protein stability index was determined as 3.22. AFTMAENIANCERLIEVEDMMVMG [L8I]: the protein stability index came to 2.79.

In the case of AFTMAENKANCERLIEVEDMMVMG [L8K], the protein stability index was determined as 3.98. Consider AFTMAENDANCERLIEVEDMMVMG [L8D], for which the protein stability index worked out at 4.36. The value for AFTMAENPANCERLIEVEDMMVMG [L8P] was 4.09; that for AFTMAENVANCERLIEVEDMMVMG [L8V] was 3.14; that for AFTMAENMANCERLIEVEDMMVMG [L8M] was 3.3. Take AFTMAENFANCERLIEVEDMMVMG [L8F]: the protein stability index came out at 3.78. Turning to AFTMAENCANCERLIEVEDMMVMG [L8C], the protein stability index was found to be 3.81. The value for AFTMAENGANCERLIEVEDMMVMG [L8G] was 4.02. As for AFTMAENSANCERLIEVEDMMVMG [L8S], the figure is 4.28. For the variant AFTMAENTANCERLIEVEDMMVMG [L8T], the protein stability index is 3.92. AFTMAENEANCERLIEVEDMMVMG [L8E]: the protein stability index was found to be 4.29. The value for AFTMAENWANCERLIEVEDMMVMG [L8W] was 2.83.

(Values after the supplement of paper PMC10567573.)
